# Assay: soluble on expression in E. coli; label from the status in PepcDB or PDB records
row,Sequence,soluble on expression in E. coli
1,MGSDKIHHHHHHMEILLARQPIVDRFGSIDAFELLYRSVETPAVFDGDLATMDVLTNTLIHLGVDRVAEGKRLFINFTGDLLQSELIDHLNPTQFVIEVLETVQIDEMMLQTLQKWKEAGFVLALDDFVTDLLRHHGPELFDLIDLIKIDIEAINPREQSAILHILKRNYPHIRFLAERVETHEDHTRSLAMGYDWFQGYFYAKPMLMKGKAVPPQVPVLLKMLKWLDTDDHYDDVVDEIEGNPYISVQVLQLINSPGIGLRNMVSSVRQAISLLGFSQLKSWISLIVLREMKLASPYQWSDELLRSSLHCAKLCQLFATETKTLKAESAYMIGLLSHIDALLSVDIGEIIDQLPIEPALKNVLQGEDHPFRDCLLLAISADRGEFERFEMLSNRFGIMKHRAYELLKESQVWLSQKELHLQDKTDSIV,not soluble
2,MQIEKIRDQKMKAVRVKKLSKLADEITINISGAKNALLHLIFASLIPDTKTKFTNVPITLLDYKGAKEILENVGAKVIEKDEEVTIDTAAISNETLELCGEMTSKTRCSLMLLGSLLKKKGRVKIGFPGGCSFSEKRPFDIHLNGLEALGAEVKLADDHIEVIYKEEKNAEFKMPFPSVGATMNLLMYAVTGNSEIVLENVALEPEVVTLIDYLNQCGANIDFDADSRKIKILGIMRLNGCEFEIIFDRIQAMTYAAMAYLYKTNVTITNINTQDTYSIKKPLEKLTNAGAKWEYNQANRSIKFFGKDSCIKGVDIIAAPFPHFPTDLQPIYAVMLFMANSSSTIQDTVYPERINYVYQIRKMGFNISIDNTLIKINPLKNLNDIRPAVMSVKDLRAGMACLMAGSLLDEFSTINNAHQIFRGYNNLIENMSHFMRIEILNDNV,not soluble
3,MGSDKIHHHHHHMTEDIIKKYRGKLPESILEQWHLFGFAGYLNGLYWITNPDDYAEVIYDWLEETPLPDDDVYHVLARSAFGELLIWGERNYGRYYIKTMEGILHDNGEQLESAEFYGSDFFFLPKKNYLDYTDKNGNKLFDRAVKKLGVLKADEMYAFEPALALGGEESLQHLTKVNLPVHMKLLKQVTPLRLRTFEDLTAALYGTSYSVDDLTSGQDAESQYQESVQAGEVCPRTGYWTTPAQPNTRHYCKKGEVLPEIKEQDWGEVYWYWDGEN,not soluble
4,MGSQAIEAHREGAEVYHGAALCAEKAVELLAEIHMPLGLLPLAEMEEVGYNRATGFVWLRQKKAITHTFKQISRQVSFAAEVTAFVEDRRMKRVTGAKTKELLIWVSLSDMFIDKDDASKITFKTPTGLGRTYPVDAFAKEDDGKGKVPAAAAAANGKETAVNGKAK,soluble
5,GHMAKHQIGVIGLAVMGKNLALNIESKGYSVAVYNRLREKTDEFLQEAKGKNIVGTYSIEEFVNALEKPRKILLMVKAGAPTDATIEQLKPHLEKGDIVIDGGNTYFKDTQRRNKELAELGIHFIGTGVSGGEEGALKGPSIMPGGQKEAHELVRPIFEAIAAKVDGEPCTTYIGPDGAGHYVKMVHNGIEYGDMQLIAEAYFLLKHVLGMDAAELHEVFADWNKGELNSYLIEITADIFTKIDEETGKPLVDVILDKAGQKGTGKWTSQNALDLGVPLPIITESVFARFLSAMKDERVKASKVLAGPAVKPFEGDRAHFIEAVRRALYMSKICSYAQGFAQMKAASEEYNWNLRYGDIAMIFRGGCIIRAQFLQKIKEAYDRDPALSNLLLDSYFKDIVERYQDALREIVATAAMRGIPVPGSASALAYYDSYRTAVLPANLIQAQRDYFGAHTYERVDKEGIFHTEWLK,soluble
6,MPTYPPSLLQSLLQYIPERELAWDCGAGSGQLTHMLASYFDQVVGTDISQTQLSHAEYYDNISYQLQPAENTTFPDHCFDLITVAQAIHWFDFEAFYAEVRRTIKPSGILAVVGYGLIHVDDLEINAKVQHLYHQTLNGFWDAERHYVDELYQTIPFPFDEIEMPAFQIEAQWTLQQLLQYLNTWSAVQHYILEKNLDPVQQLLSKGLEHHHHHH,not soluble
7,GPGSMGCLPPDDLGPFVSDHVDVNEAEPVPLSDEDLDLLVRYSLLPTDVVREAWAVFNHYRVVECLRAQQRHYAMTGHLPQKSTVSMSARPFPVAECGGKLFTTPVRAASGDCNAVKEEEKAPVSPRDCVTGENSECRKEEVEVAVLGAEGLRQFFEDTGAPIPTLEVTSFLRRMSQPPVEYLLYQRALEEKLTGAAAAAAPPREESPGVGQRKKSPQTDQSKHNKGQSVGRGQRPNNNTKSLNILVDDHIDLLEEQRGSGGETVTFPLFLYILSNAELGKNFTADVRESEINTLFRTLDVDGDGVVSVDDIQRLLEERCSLGDTLYEDRDIRYLRGMNLTELKAALRECDVDEDGAVRLNDFRSVLSS,soluble
8,MSLKSLKAKFRKSDTNEWNKNDDRLLQAVENGDAEKVASLLGKKGASATKHDSEGKTAFHLAAAKGHVECLRVMITHGVDVTAQDTTGHSALHLAAKNSHHECIRRLLQSKCPAESVDSSGKTALHYAAAQGCLQAVQILCEHKSPINLKDLDGNIPLLLAVQNGHSEICHFLLDHGADVNSRNKSGRTALMLACEIGSSNAVEALIKKGADLNLVDSLGYNALHYSKLSENAGIQSLLMSKISQDADLKTEGHHHHHH,soluble
9,MKAKLKQLRRLVESSFPEIENFHEKVDASFEKLENAKSFWSEIYVAHLKVVGDGVKVPESVFIKVPRISENVLRCEDESAVNHLNDVLLYYSKKENLFYKHFEYGSIPNFPFPKVYFTEDINGEATGGIVAENLSEKVFAVEHIPGLKHEQILRLMEALAGLHSFLMKRDDKSYVESFVEGAHGRETFSEGMQNMMFEEALTLENVSPEVFGNDRIRNIKWSFDYSIKNKATADAISAFPGIICHADLNVTNVLWKKDSAKDEISAIIDYQMLFIGSIAFDIIRVLTLGLNREIRRKMTQNYLDHYHKTLTELSNGKAPFSMEELLHQYSLIYPFSSNFSLFGIALYIKMYSDGTLGNPEDKEENCKELIDRALGIVEDIEALKNNYK,not soluble
10,MSPEKQPLPAALVGSHVRAAAGTPADLATDRKFWTGLSRAVQERIADDWERTREAYGAARQQHYFSAEFLMGRALLNNLTNLGLVDEAAAATRELGHELTDILEIENDAALGNGGLGRLAACFLDSAVTQDYPVTGYGLLYRFGLFRQSFNEGFQVEKPDPWREEEYPFTIRRASDQLVVCFDDMKTRAIPYDMPITGYGTHNVGTLRLWKAEPWEEFDYDAFNAQRFTDAIIERERVSDICRVLYPNDTTYEGKKLRVRQQYFFTSASLQAMIQDHLAHHKDLSNFAEFHSVQLNDTHPVLAIPELMRLLMDEHDMGWEESWAIVSKTFAYTNHTVLTEALEQWDEQIFQQLFWRVWEIIAEIDRRFRLERAADGLDEETINRMAPIQHGTVHMAWIACYAAYSINGVAALHTEIIKAETLADWYALWPEKFNNKTNGVTPRRWLRMINPGLSDLLTRLSGSDDWVTDLDELKKLRSYADDKSVLEELRAIKAANKQDFAEWILERQGIEIDPESIFDVQIKRLHEYKRQLMNALYVLDLYFRIKEDGLTDIPARTVIFGAKAAPGYVRAKAIIKLINSIADLVNNDPEVSPLLKVVFVENYNVSPAEHILPASDVSEQISTAGKEASGTSNMKFMMNGALTLGTMDGANVEIVDSVGEENAYIFGARVEELPALRESYKPYELYETVPGLKRALDALDNGTLNDNNSGLFYDLKHSLIHGYGKDASDTYYVLGDFADYRETRDRMAADYASDPLGWARMAWINICESGRFSSDRTIRDYATEIWKLEPTPAVKK,soluble
11,SLKKKSLKLTALFLALSCFPAFAEQTVDIEVQGIRGFRAVRNTDLNVNLINKEEMDGSERYQHLVTKAVDRGLRVFGYYESSVRFERKQRQGKRDLLIAHVTPGEPTKIAGTDVQIEGEAAQDENFNALRKNLPKDGVLVEHQTYDDYKTAISRLALNRGYFDGNFKISRLEISPETHQAWWRMLFDSGVRYHYGNITFSHSQIRDDYLNNILNIKSGDPYLMNNLSDLTSDFPSSNWFSSVLVQPNVNHKSKTVDVEIILYPRKKNAMELGVGFSTDGGVHGQIGWTKPWINSRGHSLRSNLYLSAPKQTLEATYRMPLLKNPLNYYYDFAVGWEGEKENDTNTRVLTLSALRYWNNAHGWQYFGGLRMRYDSFTQADITDKTLLLYPTVGFTRTRLRGGSFATWGDVQKITFDLSKRIWLSESSFIKVQASSAWVRTYAENHRVVARAEIGYLHTKGIEKIPPTLRFFAGGDRSVRGYGYKKIAPKNRNGKLVGGSRLLTTSLEYQYQVYPNWWAATFADSGLAADNYTAKELRYGTGVGVRWASPVGAIKFDIATPIRDKDNSKNIQFYIGLGTEI,soluble
12,MSLKFAAGFVLIDAPHSALNMLGIDESLPDRNVTRVKTLRRGGNRYVYISPQAWRYWWRITLKEYFNWELSPLFREEKQVFTAANPIKYPDDDVFGYMRAYKKNKVNVTVTRISPLKNTPLVSVLPDRSSLTIDEGYASRHEGDPVPYSQEFYSTVLKGAFSLDLDLVGRFTTKNKAGYKNLLTRDDIPKKGKGEDIVKEIKELEELARNVGVEIKDGEWIMPKEIRKKRSIETIKALRYLTGGAKQTQYHTDVTPKLFLGIIVNGGINPFISDIVREEKGEIILDAEALATRLEDFSDIIDSKLFLGYDMGFVRSLGLEIEAIKSTAGIEVVEGKVGEIIEKFAEEAGKYYIEGHHHHHH,soluble
13,MHANGIFFVPKYSSKYGKKQQTEKQWPVPEMGWQPGAVNSNFALQSSALILIGGFIRIIKVDSNATSCIHFGGIDAKPLLLQMNAYSLPAAEIRTKNGRIVARVF,not soluble
14,MNEFSILCRVLGSLFYRQPQDPLLVPLFTLIREGKLAANWPLEQDDMLARLQKSCDITQISTDYNALFVGEECAVAPYRSAWVEGAEESEVRAFLTSRGMPLADTPADHIGTLLLAASWLEDQSAEDESEALETLFADYLLPWCNTFLGKVEAHAVTPFWRTLAPLTRDAIGAMWDELQEEDEE,not soluble
15,SSAKAQVNPAICRYPLGMSGGQIPDEDITASSQWSESTAAKYGRLDSEEGDGAWCPEIPVEPDDLKEFLQIDLHTLHFITLVGTQGRHAGGHGIEFAPMYKINYSRDGTRWISWRNRHGKQVLDGNSNPYDIFLKDLEPPIVARFVRFIPVTDHSMNVCMRVELYGCVWLDGLVSYNAPAGQQFVLPGGSIIYLNDSVYDGAVGYSMTEGLGQLTDGVSGLDDFTQTHEYHVWPGYDYVGWRNESATNGYIEIMFEFDRIRNFTTMKVHCNNMFAKGVKIFKEVQCYFRSEASEWEPNAISFPLVLDDVNPSARFVTVPLHHRMASAIKCQYHFADTWMMFSEITFQSDAAM,not soluble
16,MSVERSLEAWEEVQRHGQDLADRLAQGFNGLIQINPPSFPSKLFDLEFSSQHFGIRDSRFSIHQPINGVSAILDIGNKIGQAGVDFGSGLNVMVQQFFRRLPVPFRHDENVFVSTERDTVTRSHRAYVDTKENSAFSKTDTASSGTVYEEKVTEFDLRTIGLHRRAKGTVELSSSYETRTSSMEHSLAARGDLWRVEASTSNSPVRDDSSSLFLLQLGPLLFLRDSTLLLPVHLSKQHLLWYGYDRKKGMHSLCPALWSKHRRWLMMSMLCLNPLDCSFVDLQFPNGQLTYVSGEGLTTSVFVPLCGGLLQAQGQYPGDMRFSFSCKSKQGTRITPMINWPDKSLALGVSQALAWRRSGVMLKPAIQLSVCSTFGGSNPGIKTEVIQSLNDNINMICGCAFTAHPSTFASVSFGRSKWNGNIGRTGIVVRADTPLPNVARPSFSIQINNAFEF,soluble
17,HVKVGFSPEKLRPYTTMPADFQQFWENQKAELAKFPLTYTKEHVKKYSTDQIDCYLIKLQVNQRGQSIYGYLFYPKKEGKYPVVLCPPGAGIKTIKEPLRHKYYAEQGCIRFEIEIHGLNPEMSEEEFKEISAAFNGRENGYLSNGLDSRDNYYMKRVYLACVRSIDLLTSLPEWDGKNVVVQGGSQGGALALVTAGLDQRVTACVANHPALSDMAGYKAGRAGGYPHFFRNTVDMDTPEKIRTMAYYDVVNFAQLIRADTYMTWGFNDNVCPPTTSYIVYNVLNCPKEALITPINEHWTSSDTEYGHLLWIKKHLK,not soluble
